Reference: patent publication US20250197461A1, “Insect-derived short peptide for improving abscisic acid (ABA) content in cruciferous plant” (Gannan Normal University, priority 2023, published 2025)

Target: T1, zeaxanthin epoxidase aba1 (Arabidopsis thaliana, UniProt Q9FGC7)
T1 construct: expressed in transfected cells; host or cells: Y2HGold yeast (Saccharomyces cerevisiae)
T1 sequence (Q9FGC7 60-667): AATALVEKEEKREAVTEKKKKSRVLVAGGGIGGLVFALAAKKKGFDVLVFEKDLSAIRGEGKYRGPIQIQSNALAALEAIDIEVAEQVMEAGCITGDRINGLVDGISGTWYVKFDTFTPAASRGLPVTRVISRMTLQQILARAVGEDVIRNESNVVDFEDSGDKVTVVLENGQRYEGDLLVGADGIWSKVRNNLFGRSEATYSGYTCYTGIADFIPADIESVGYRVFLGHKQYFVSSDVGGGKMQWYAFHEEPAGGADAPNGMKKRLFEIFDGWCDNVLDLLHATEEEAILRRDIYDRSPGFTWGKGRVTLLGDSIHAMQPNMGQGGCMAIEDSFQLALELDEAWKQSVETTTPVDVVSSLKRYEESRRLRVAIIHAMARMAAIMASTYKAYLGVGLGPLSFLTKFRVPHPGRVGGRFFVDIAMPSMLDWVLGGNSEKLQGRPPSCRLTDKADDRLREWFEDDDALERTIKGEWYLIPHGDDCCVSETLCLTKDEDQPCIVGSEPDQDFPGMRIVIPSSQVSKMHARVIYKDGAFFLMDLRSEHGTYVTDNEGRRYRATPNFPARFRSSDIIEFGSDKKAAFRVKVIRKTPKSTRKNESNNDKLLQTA
Assay: Yeast two-hybrid interaction of GSS1 and its variants with aba1
Type: binding
Conditions: Y2HGold yeast, TDO/QDO with x-α-gal
Description: A Y2HGold yeast transformant containing the correct pGBKT7-GSS1 bait plasmid was used as a recipient strain to prepare competent cells, and a library plasmid extracted from the yeast library was transferred into the competent cells, and coated on the SD-Trp-Leu-His+5 mM3AT plate. […]

## PDYKQKLRDSKAWESLETIGIPLDADVM (insect-derived short peptide) [GSS1-PI]
  interaction with aba1 (yeast two-hybrid): interacted with aba1
